± gives the uncertainty stated by the source.
B1: Far upstream element-binding protein 1, residues 98 to 169; numbered along this chain, Q96AE4 (parent)
chain: RSVMTEEYKVPDGMVGFIIGRGGEQISRIQQESGCKIQIAPDSGGLPERSCMLTGTPESVQSAKRLLDQIVE

Variants of: B1
Assay: abundance fitness (aPCA) (normalised: wild type 0, dead -1); higher = more abundant; growth selection in yeast, the domain comes from the species named
Conditions: Homo sapiens

RSVMTEEYKVPDGMVGFIIGRGGEQISRIQQESGCKIQIAPDSGGTPERSCMLTGTPESVQSAKRLLDQIVE [L46T] and RSVMTEEYKVPDGMVGFIIGRGGEQISRIQQESGCKIQIAPDSGGQPERSCMLTGTPESVQSAKRLLDQIVE [L46Q] are within error of each other in abundance fitness: -0.006 ± 0.037 for the first, -0.001 ± 0.042 for the second.

Going from RSVMTEEYKVPDGMVGFIIGRGGEQISRIQQESGCKIQIAPDSGGHPERSCMLTGTPESVQSAKRLLDQIVE [L46H] to RSVMTEEYKVPDGMVGFIIGRGGEQISRIQQESGCKIQIAPDSGILPERSCMLTGTPESVQSAKRLLDQIVE [G45I], the abundance fitness falls from -0.011 ± 0.058 to -0.14 ± 0.057.

RSVMTEEYKVPDGMVGFIIGRGGEQISRIQQESGCKIQIAPDSGELPERSCMLTGTPESVQSAKRLLDQIVE [G45E] and RSVMTEEYKVPDGMVGFIIGRGGEQISRIQQESGCKIQIAPDSGNLPERSCMLTGTPESVQSAKRLLDQIVE [G45N] are within error of each other in abundance fitness: -0.023 ± 0.033 for the first, -0.094 ± 0.067 for the second.

RSVMTEEYKVPDGMVGFIIGRGGEQISRIQQESGCKIQIAPDSGLLPERSCMLTGTPESVQSAKRLLDQIVE [G45L] and RSVMTEEYKVPDGMVGFIIGRGGEQISRIQQESGCKIQIAPDSGQLPERSCMLTGTPESVQSAKRLLDQIVE [G45Q] are within error of each other in abundance fitness: -0.115 ± 0.031 for the first, -0.046 ± 0.042 for the second.

RSVMTEEYKVPDGMVGFIIGRGGEQISRIQQESGCKIQIAPDSGKLPERSCMLTGTPESVQSAKRLLDQIVE [G45K] and RSVMTEEYKVPDGMVGFIIGRGGEQISRIQQESGCKIQIAPDSGVLPERSCMLTGTPESVQSAKRLLDQIVE [G45V] are within error of each other in abundance fitness: -0.086 ± 0.042 for the first, -0.111 ± 0.029 for the second.

RSVMTEEYKVPDGMVGFIIGRGGEQISRIQQESGCKIQIAPDSGSLPERSCMLTGTPESVQSAKRLLDQIVE [G45S] and RSVMTEEYKVPDGMVGFIIGRGGEQISRIQQESGCKIQIAPDSGTLPERSCMLTGTPESVQSAKRLLDQIVE [G45T] are within error of each other in abundance fitness: -0.027 ± 0.03 for the first, -0.074 ± 0.036 for the second.

Going from RSVMTEEYKVPDGMVGFIIGRGGEQISRIQQESGCKIQIAPDSGDLPERSCMLTGTPESVQSAKRLLDQIVE [G45D] to RSVMTEEYKVPDGMVGFIIGRGGEQISRIQQESGCKIQIAPDSGPLPERSCMLTGTPESVQSAKRLLDQIVE [G45P], the abundance fitness falls from -0.002 ± 0.036 to -0.078 ± 0.037.

RSVMTEEYKVPDGMVGFIIGRGGEQISRIQQESGCKIQIAPDSGALPERSCMLTGTPESVQSAKRLLDQIVE [G45A] and RSVMTEEYKVPDGMVGFIIGRGGEQISRIQQESGCKIQIAPDSGRLPERSCMLTGTPESVQSAKRLLDQIVE [G45R] are within error of each other in abundance fitness: -0.046 ± 0.033 for the first, -0.078 ± 0.026 for the second.

RSVMTEEYKVPDGMVGFIIGRGGEQISRIQQESGCKIQIAPDSGWLPERSCMLTGTPESVQSAKRLLDQIVE [G45W] and RSVMTEEYKVPDGMVGFIIGRGGEQISRIQQESGCKIQIAPDSGHLPERSCMLTGTPESVQSAKRLLDQIVE [G45H] are within error of each other in abundance fitness: -0.166 ± 0.036 for the first, -0.163 ± 0.063 for the second.

RSVMTEEYKVPDGMVGFIIGRGGEQISRIQQESGCKIQIAPDSGYLPERSCMLTGTPESVQSAKRLLDQIVE [G45Y] and RSVMTEEYKVPDGMVGFIIGRGGEQISRIQQESGCKIQIAPDSGMLPERSCMLTGTPESVQSAKRLLDQIVE [G45M] are within error of each other in abundance fitness: -0.095 ± 0.048 for the first, -0.093 ± 0.041 for the second.

RSVMTEEYKVPDGMVGFIIGRGGEQISRIQQESGCKIQIAPDSGCLPERSCMLTGTPESVQSAKRLLDQIVE [G45C] and RSVMTEEYKVPDGMVGFIIGRGGEQISRIQQESGCKIQIAPDSGGLAERSCMLTGTPESVQSAKRLLDQIVE [P47A] are within error of each other in abundance fitness: -0.034 ± 0.045 for the first, -0.012 ± 0.031 for the second.

RSVMTEEYKVPDGMVGFIIGRGGEQISRIQQESGCKIQIAPDSGGLTERSCMLTGTPESVQSAKRLLDQIVE [P47T] and RSVMTEEYKVPDGMVGFIIGRGGEQISRIQQESGCKIQIAPDSGGLSERSCMLTGTPESVQSAKRLLDQIVE [P47S] are within error of each other in abundance fitness: -0.007 ± 0.033 for the first, -0.014 ± 0.031 for the second.

RSVMTEEYKVPDGMVGFIIGRGGEQISRIQQESGCKIQIAPDSGGLCERSCMLTGTPESVQSAKRLLDQIVE [P47C] and RSVMTEEYKVPDGMVGFIIGRGGEQISRIQQESGCKIQIAPDSGGLVERSCMLTGTPESVQSAKRLLDQIVE [P47V] are within error of each other in abundance fitness: -0.061 ± 0.041 for the first, -0.038 ± 0.029 for the second.

RSVMTEEYKVPDGMVGFIIGRGGEQISRIQQESGCKIQIAPDSGGLLERSCMLTGTPESVQSAKRLLDQIVE [P47L] and RSVMTEEYKVPDGMVGFIIGRGGEQISRIQQESGCKIQIAPDSGGLGERSCMLTGTPESVQSAKRLLDQIVE [P47G] are within error of each other in abundance fitness: -0.02 ± 0.03 for the first, -0.019 ± 0.027 for the second.

RSVMTEEYKVPDGMVGFIIGRGGEQISRIQQESGCKIQIAPDSGGLRERSCMLTGTPESVQSAKRLLDQIVE [P47R] and RSVMTEEYKVPDGMVGFIIGRGGEQISRIQQESGCKIQIAPDSGGLHERSCMLTGTPESVQSAKRLLDQIVE [P47H] are within error of each other in abundance fitness: -0.054 ± 0.024 for the first, -0.052 ± 0.045 for the second.

RSVMTEEYKVPDGMVGFIIGRGGEQISRIQQESGCKIQIAPDSGGLMERSCMLTGTPESVQSAKRLLDQIVE [P47M] and RSVMTEEYKVPDGMVGFIIGRGGEQISRIQQESGCKIQIAPDSGGLNERSCMLTGTPESVQSAKRLLDQIVE [P47N] are within error of each other in abundance fitness: -0.088 ± 0.035 for the first, -0.012 ± 0.052 for the second.

RSVMTEEYKVPDGMVGFIIGRGGEQISRIQQESGCKIQIAPDSGGLKERSCMLTGTPESVQSAKRLLDQIVE [P47K] and RSVMTEEYKVPDGMVGFIIGRGGEQISRIQQESGCKIQIAPDSGGLDERSCMLTGTPESVQSAKRLLDQIVE [P47D] are within error of each other in abundance fitness: -0.004 ± 0.04 for the first, -0.007 ± 0.042 for the second.

RSVMTEEYKVPDGMVGFIIGRGGEQISRIQQESGCKIQIAPDSGGLIERSCMLTGTPESVQSAKRLLDQIVE [P47I] and RSVMTEEYKVPDGMVGFIIGRGGEQISRIQQESGCKIQIAPDSGGLQERSCMLTGTPESVQSAKRLLDQIVE [P47Q] are within error of each other in abundance fitness: -0.049 ± 0.051 for the first, 0.019 ± 0.038 for the second.

RSVMTEEYKVPDGMVGFIIGRGGEQISRIQQESGCKIQIAPDSGGLEERSCMLTGTPESVQSAKRLLDQIVE [P47E] and RSVMTEEYKVPDGMVGFIIGRGGEQISRIQQESGCKIQIAPDSGGLFERSCMLTGTPESVQSAKRLLDQIVE [P47F] are within error of each other in abundance fitness: -0.025 ± 0.036 for the first, -0.084 ± 0.052 for the second.

From the Human Domainome abundance scans (Beltran et al. 2025)
